In patent US20120321619A1 (Bayer, published 2012):

Experiments:
[1] = target: T1, human C4.4a natively expressed on tumor cell lines (human, UniProt O95274 31-326); test: FACS titration of IgG1 on NCI H292 cells
T1 construct: whole, on cells; also called NCI H292; NCI H322
T1 sequence (looked up): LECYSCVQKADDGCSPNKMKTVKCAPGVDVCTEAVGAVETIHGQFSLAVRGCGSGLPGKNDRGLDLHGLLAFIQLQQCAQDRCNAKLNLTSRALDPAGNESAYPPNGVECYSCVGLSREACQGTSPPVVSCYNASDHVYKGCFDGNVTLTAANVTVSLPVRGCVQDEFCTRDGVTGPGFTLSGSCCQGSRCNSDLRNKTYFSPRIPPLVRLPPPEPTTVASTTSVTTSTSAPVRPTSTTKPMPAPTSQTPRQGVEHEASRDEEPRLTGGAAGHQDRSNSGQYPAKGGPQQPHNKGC
Procedure: (§1) FACS titration was performed in a 96 well microtiter plate, in which serial dilutions of the primary antibody in a volume of 50 W of FACS buffer (3% FCS, in PBS) were mixed with 50 μl of a cell suspension consisting of 2×10^5 cells/ml which had been detached with Cell Dissociation Solution (1×) Non-enzymatic (Sigma), and resuspended in FACS buffer. Incubation was performed at 4° C. for 1 hour with agitation. Cells were pelleted, washed with FACS buffer and resuspended in 100 μl/well of Phycoerythrin labeled goat anti human IgG (Dianova) solution in FACS buffer. Incubation and washing was performed as before. Analysis of cell-bound antibodies was done at the respective detection wavelength using the FACS Array device. EC₅₀ values were determined from fluorescence medians of duplicates using Swift 8.0 software.

[2] = target: T2, hC4.4a domain S2-Fc-his6 (human, UniProt O95274 138-223); test: western blot of purified S2-Fc-6×HisTag fusion
T2 construct: C-terminal human IgG1 Fc-6×HisTag fusion from HEK293 6E cells; also called S2 Fc-6×HisTag; domain S2 of C4.4a
Procedure: The SDS gel was then blotted to a iblot gel transfer membrane (Invitrogen IB3010-02) using an iBlot device (Invitrogen). The membrane was blocked in DPBS pH 7.4+4% milk powder+0.1% Tween 20 for 16 h at 4° C., followed by three washing steps for 5 min at 20° C. in DPBS pH 7.4+0.1% Tween 20. M31-B01 (5.76 mg/ml) or M20-D02 S-A (3.49 mg/ml) were applied in dilutions of 1/5000 and 1/2000 respectively and incubated for 1.5 h at 20° C., followed by 2× washes in DPBS pH 7.4+0.1% Tween 20. The second antibody (alk. Phosphatase. Conjugate Goat anti human IgG, Fab specific; 109-055-097 Jackson ImmunoResearch) was incubated at a dilution of 1/1000 for 1.5 h at 20° C. Followed by 3 washing steps for 5 min at 20° C. in DPBS pH 7.4+0.1% Tween 20. Staining was performed with Sigma Fast BCIP/NBT/1 tablet in 10 ml water at 20° C. till the bands became visible. Staining reaction was stopped by washing with water.

[3] = target: T3, recombinant soluble human C4.4a (human, UniProt O95274 31-308); test: SPR (Biacore T100), IgG1 captured by anti-human Fc, soluble C4.4a injected, 1:1 fit
T3 construct: recombinant, soluble, purified protein; also called hC4.4a; full length C4.4a
T3 sequence: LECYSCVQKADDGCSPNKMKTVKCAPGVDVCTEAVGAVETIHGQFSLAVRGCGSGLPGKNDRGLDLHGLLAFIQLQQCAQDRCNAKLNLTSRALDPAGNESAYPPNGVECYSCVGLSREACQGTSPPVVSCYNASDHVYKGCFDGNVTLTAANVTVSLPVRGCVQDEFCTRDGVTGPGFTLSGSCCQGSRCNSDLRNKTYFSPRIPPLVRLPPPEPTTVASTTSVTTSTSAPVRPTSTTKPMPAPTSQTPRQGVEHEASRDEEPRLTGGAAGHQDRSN
Procedure: (§2) Binding affinities of anti C4.4 antibodies were determined by surface plasmon resonance analysis on a Biacore T100 instrument (GE Healthcare Biacore, Inc.). Antibodies were immobilized onto a CM5 sensor chip through an indirect capturing reagent, anti-human IgG Fc. Reagents from the “Human Antibody Capture Kit” (BR-1008-39, GE Healthcare Biacore, Inc.) were used as described by the manufacturer. Approximately 5000 RU monoclonal mouse anti-human IgG (Fc) antibody were immobilized per cell. Anti C4.4 antibodies were injected at a concentration of 5 μg/ml at 10 μl/min for 10 sec to reach a capturing level of approximately 200 to 600 RU. Various concentrations (400 nM, 200 nM, 100 nM, 50 nM, 25 nM, 12.5 nM, 6.25 nM, and 3.12 nM) in HEPES-EP buffer (GE Healthcare Biacore, Inc.) of human or murine C4.4a were injected over immobilized anti C4.4a antibodies at a flow rate of 60 μl/min for 3 minutes and the dissociation was allowed for 10 minutes. Sensograms were generated after in-line reference cell correction followed by buffer sample subtraction. The dissociation equilibrium constant (KD) was calculated based on the ratio of association (kₒₙ) and dissociation rated (koff) constants, obtained by fitting sensograms with a first order 1:1 binding model using Biavaluation Software (version 4.0).

[4] = target: T4, recombinant soluble murine C4.4a (mouse, UniProt Q91YK8 33-343, limits assumed); test: as above
T4 construct: also called mouse C4.4a; mC4.4a
T4 sequence (looked up): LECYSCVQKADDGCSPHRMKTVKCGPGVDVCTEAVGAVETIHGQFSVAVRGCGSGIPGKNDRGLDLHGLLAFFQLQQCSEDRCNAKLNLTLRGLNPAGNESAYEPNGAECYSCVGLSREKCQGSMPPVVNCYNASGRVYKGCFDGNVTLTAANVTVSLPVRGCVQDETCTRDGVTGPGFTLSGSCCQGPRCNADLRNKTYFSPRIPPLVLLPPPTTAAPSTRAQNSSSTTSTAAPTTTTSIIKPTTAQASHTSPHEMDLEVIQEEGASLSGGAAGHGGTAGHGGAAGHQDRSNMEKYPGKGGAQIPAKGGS
Procedure: as §2

[5] = target: T1, human C4.4a natively expressed on tumor …; test: FACS titration on NCI H322 cells (native C4.4a), IgG1 format, phycoerythrin-labelled goat anti-human IgG detection
Procedure: as §1

B1: M31-B01 (antibody, human IgG1, V domains shown)
VH: EVQLLESGGGLVQPGGSLRLSCAASGFTFSNAWMSWVRQAPGKGLEWVSYISSSGSTIYYADSVKGRFTISRDNSKNTLYLQMNSLRAEDTAVYYCAREGLWAFDYWGQGTLVTVTS
VL: QSVLTQPPSASGTPGQRVTISCTGSSSNIGAGYVVHWYQQLPGTAPKLLIYDNNKRPSGVPDRFSGSKSGTSASLAISGLRSEDEADYYCAAWDDRLNGPVFGGGTKLTVLG
notes: tested as human IgG1
For B1, the EC50 [1] was 0.3 nM, the binding result [2] was “no binding” and the Kd [3] was 70 nM. For the same binder, the Kd [4] was 130 nM and the EC50 [5] was 0.3 nM.

B2: M20-D02 S-A (antibody, human IgG1, V domains shown)
VH: EVQLLESGGGLVQPGGSLRLSCAASGFTFSDYQMTWIRQTPGKGLEWVSGVSWNGARTHYADSVKGRFTISRDNSKNTLYLQMNSLRAEDTAVYYCAKGDYLVYSAYYFDSWGQGTLVTVTS
VL: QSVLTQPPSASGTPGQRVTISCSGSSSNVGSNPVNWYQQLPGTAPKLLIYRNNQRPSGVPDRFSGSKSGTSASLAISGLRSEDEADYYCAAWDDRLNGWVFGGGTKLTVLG
notes: tested as human IgG1
B2 was tested, and the EC50 [1] was 1.3 nM, the binding result [2] was “no binding” and the Kd [3] was 220 nM. It also gave a Kd [4] of 180 nM and an EC50 [5] of 1.2 nM.
